Measurements: article PMC8687477 (2021)

Key:
[1] = target: T1, SARS-CoV-2 nucleocapsid protein (N), 2X-StrepTag tagged (SARS-CoV-2, UniProt P0DTC9 1-419); assay: BLI
[2] = target: T1, SARS-CoV-2 nucleocapsid protein (N), …; assay: BLI; remark: listed apart in the source

Binder	Kd [1] [nM]	koff [2] [s⁻¹]
recombinant human CXCL9 (ligand) TPVVRKGRCSCISTNQGTIHLQSLKDLKQFAPSPSCEKIEIIATLKNGVQTCLNPDSADVKELIKKWEKQVSQKKKQKNGKKHQKKKVLKVRKSQRSRQKKTT	12	0.00085
recombinant human CCL11 (ligand) not shown	72	0.0045
recombinant human CCL26 (ligand) TRGSDISKTCCFQYSHKPLPWTWVRSYEFTSNSCSQRAVIFTTKRGKKVCTHPRKKWVQKYISLLKTPKQL	26	0.00093
recombinant human CXCL4 (ligand) EAEEDGDLQCLCVKTTSQVRPRHITSLEVIKAGPHCPTAQLIATLKNGRKICLDLQAPLYKKIIKKLLES	170	0.00053
recombinant human CCL28 (ligand) SEAILPIASSCCTEVSHHISRRLLERVNMCRIQRADGDCDLAAVILHVKRRRICVSPHNHTVKQWMKVQAAKKNGKGNVCHRKKHHGKRNSNRAHQGKHETYGHKTPY	22	0.00087
recombinant human CCL5 (ligand) SPYSSDTTPCCFAYIARPLPRAHIKEYFYTSGKCSNPAVVFVTRKNRQVCANPEKKWVREYINSLEMS	–	0.00019
recombinant human CXCL11 (ligand) FPMFKRGRCLCIGPGVKAVKVADIEKASIMYPSNNCDKIEVIITLKENKGQRCLNPKSKQARLIIKKVERKNF	130	0.0033
recombinant human CCL21 (ligand) SDGGAQDCCLKYSQRKIPAKVVRSYRKQEPSLGCSIPAILFLPRKRSQAELCADPKELWVQQLMQHLDKTPSPQKPAQGCRKDRGASKTGKKGKGSKGCKRTERSQTPKGP	14	0.0014
recombinant human CXCL14 (ligand) SKCKCSRKGPKIRYSDVKKLEMKPKYPHCEEKMVIITTKSVSRYRGQEHCLHPKLQSTKRFIKWYNAWNEKRRVYEE	45	0.0019
